Columns and labels:
[1] = target: T1, human Fc tagged human Lag3 extra cellular domain (human, UniProt P18627 29-450, biotinylated in the epitope binning, the SA CAP SPR and the FACS competition assay); test: SPR (Biacore T200), huLag3-Fc captured, antibody Fab fragment as analyte, 25 °C
T1 construct: In-house fusion; also called huLag3-Fc; biotinylated, huFc-tagged huLag3; not shown: human Fc tag
T1 sequence: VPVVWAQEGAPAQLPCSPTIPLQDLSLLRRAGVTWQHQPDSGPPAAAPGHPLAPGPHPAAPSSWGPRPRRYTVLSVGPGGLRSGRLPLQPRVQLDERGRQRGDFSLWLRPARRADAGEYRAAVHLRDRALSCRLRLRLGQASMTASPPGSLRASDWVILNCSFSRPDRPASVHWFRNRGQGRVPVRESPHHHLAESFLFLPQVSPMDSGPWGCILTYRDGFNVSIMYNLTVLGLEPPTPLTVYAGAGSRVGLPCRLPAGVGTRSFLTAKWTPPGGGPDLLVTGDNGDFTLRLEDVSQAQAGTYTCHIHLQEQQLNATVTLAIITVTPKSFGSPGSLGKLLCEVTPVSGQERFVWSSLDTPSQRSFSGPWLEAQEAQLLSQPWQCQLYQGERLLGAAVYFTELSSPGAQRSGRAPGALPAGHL
Method: Therefore two flow cells of a C1 biosensor chip were prepared in a Biacore T200 by immobilizing neutravidin, diluted to 25 μg/ml in acetate buffer pH 4.5, onto it using the ‘immobilization wizard’. […] Then, CaptureSelect™ Biotin Anti-IgG-Fc (Human) Conjugate was bound to the neutravidin, using a 20 μg/ml dilution in running buffer (HBS-EP+, GE Healthcare).
The method itself consisted of four commands per cycle. […] Second command: sample injection for 120s followed by a 1200s long dissociation at a flow speed of 30 μl/min. Third and fourth command: regeneration by injecting Glycine-HCl pH 1.5 for 30 seconds.

[2] = target: T2, biotinylated cynoPD1-ECD-Biotin (cynomolgus, UniProt B0LAJ3 25-170, biotinylated; the site and any Avi or His tag are not stated in the passages shown); test: ELISA on coated cynoPD1-ECD-Biotin
T2 construct: also called cyPD1
T2 sequence (B0LAJ3 entry or part of it limits assumed): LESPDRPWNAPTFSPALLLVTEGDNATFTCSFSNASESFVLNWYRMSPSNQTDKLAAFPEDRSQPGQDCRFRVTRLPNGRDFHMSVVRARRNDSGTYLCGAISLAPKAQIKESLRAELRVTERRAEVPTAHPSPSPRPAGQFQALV
Method: (§1) After washing (3×90 μl/well with PBST-buffer) 25 μl/well goat-anti-human H+L-POD (JIR, JIR109-036-088) was added in 1:1000 dilution and incubated at RT for 1 h on shaker. After washing (3×90 μl/well with PBST-buffer) 25 μl/well TMB substrate (Roche, 11835033001) was added and incubated until OD 2-3. Measurement took place at 370/492 nm.

[3] = target: T3, biotinylated PD1-ECD-AviHis (human, UniProt Q15116 25-170, biotinylated); test: ELISA on coated biotinylated PD1-ECD-AviHis
T3 construct: also called huPD1; hu PD1; not shown: Avi-His tag
T3 sequence (Q15116 25-170): as the sequence (B0LAJ3 entry or part of it limits assumed) above, with E2D, A10P, L19V, A35T, R75Q, A144T counted along it
Method: as §1, with “JIR109-036-088)/Sheep-anti-mouse-POD (GE Healthcare; NA9310)” for “JIR109-036-088)”, “1:2000/1:1000” for “1:1000”, “(Roche Catalogue No.” for “(Roche,”

[4] = target: T3, biotinylated PD1-ECD-AviHis; test: PD-L1 replacing ELISA on coated PD1-ECD-AviHis; competitor PD-L1 Fc chimera
Method: as §1, with “109-036-088)” for “JIR109-036-088)”

[5] = target: T3, biotinylated PD1-ECD-AviHis; test: PD-L2 replacing ELISA on coated PD1-ECD-AviHis; competitor PD-L2 Fc chimera
Method: as §1, with “109-036-088)” for “JIR109-036-088)”, “1:2000” for “1:1000”, “TMB (tetramethylbenzidine)” for “TMB”, “#11835033001)” for “11835033001)”

Binder	koff [1] [s⁻¹]	EC50 [2] [µg/mL]	EC50 [3] [µg/mL]	IC50 [4] [µg/mL]	IC50 [5] [µg/mL]
aLAG3(0417) Fab fragment (Fab, V domains shown, also called aLAG3 (417)) VH: EVQLVESGGGLVQPGGSLRLACAASGFTFSDYAMSWVRQAPGKGLEWVSGIDNSGYYTYYTDSVKGRFTISRDDVKNTLYLQMNSLRAEDTAVYLCTKTHSGLIVNDAFDIWGQGTMVTVSS VL: not shown	9.48e-05				
PD1-0069 (antibody, V domains shown, Mouse hybridoma antibody) VH: QVQLQQSGPELVRPGVSVKISCKGSGYTFTDYAMHWVKQSHARTLEWIGVISTYSGDTNYNQKFKDKATMTVDKSSSTAYLELARMTSEDSAIYYCARLGITTGFAYWGQGTLVTVSA VL: DIVLTQSPASLAVSLGQRATISCRASKGVSTSSYSFMHWYQQKPRQPPKLLIKYASYLESGVPARFSGSGSGTDFTLNIHPVEEEDAATYYCHHSREFPWTFGGGTKLEIK		0.0227	0.0457	0.225	0.089
aLAG3(0403) Fab fragment (Fab, V domains shown) VH: EVQLLESGGGLVQPGGSLRLSCAASGFTFDDYTMHWVRQAPGKGLEWVSLVSWDGGGTYYTNSVKGRFTISRDNSKNTLYLQMNSLRAEDTAVYFCAKAITDTSLYGYDYWGQGILVTVSS VL: not shown	5e-06				
PD1-0050 (antibody, V domains shown) VH: DVQLQESGPGLVKPSQSLSLTCTVTGYSITSDYAWNWIRQFPGNKLEWMGYITYTGRTSYNPSLKSRISITRDTSKNQFFLQLNSVTTEDTATYYCAREMDYYGSTLDYWGQGTTLTVSS VL: KIVLTQSPASLAVSLRQRATISCRASESVDRYGNSFIHWYQQKPGQPPKVLIYRASNLESGFPARFSGSGSRTDFTLTIDPVEADDAATYYCQQNNEDPYTFGSGTKLEIK		0.0098	0.0179	0.128	0.034
PD1-0103 (antibody, V domains shown, Mouse hybridoma antibody; also called murine anti-PD1 antibody PD1-0103) VH: EVILVESGGGLVKPGGSLKLSCAASGFSFSSYTMSWVRQTPEKRLDWVATISGGGRDIYYPDSVKGRFTISRDNAKNTLYLEMSSLMSEDTALYYCVLLTGRVYFALDSWGQGTSVTVSS VL: KIVLTQSPASLPVSLGQRATISCRASESVDTSDNSFIHWYQQRPGQSPKLLIYRSSTLESGVPARFSGSGSRTDFTLTIDPVEADDVATYYCQQNYDVPWTFGGGTKLEIK		0.0369	0.0337	0.182	0.051
aLAG3(0411) Fab fragment (Fab, V domains shown, also called aLAG3 (411)) VH: EVHLLESGGGLVQPGGSLRLSCAASGFIVDDYTMNWVRQAPGKGLEWVSVISWDGGATYYADSVKGRFTISRDDFKNTLYLQMNSLRAEDTAVYYCAKGLTDDTLYGSDYWGQGTLVTVSS VL: DIQMTQSPSSLSASVGDRVTITCRASQSIVSYLNWYQQKPGKAPKLLIYASSSLQSGVPSRFSGSGSGTDFTLTISSLQPEDFATYYCQQTYSTPLTFGGGTKVEIK	3.87e-05				
PD1-0102 (antibody, V domains shown) VH: DVQLQESGPDLVKPSQSLSLTCTVTGYSITSGYSWHWIRQFPGNKLEWMGFIHSSGDTNYNPSLKSRISFTRDTSKNQFFLQLSSLTDEDTATYYCATYRNWYFDVWGAGTTVTVSS VL: DIVMTQSPSSLTVTAGEKVTMRCKSSQSLLNSGTQKNYLTWYQQKPGQPPKLLIYWASTRESGVPNRFTGSGSGTDFTLTISSVQAEDLSVYYCQSDYTFPLTFGGGTKLELK		0.0527	0.0342	> 35.5	0.14
PD1-0098 (antibody, V domains shown, Mouse hybridoma antibody) VH: DVQLQESGPGLVKPSQSLSLTCTVTGYSITSDYAWNWIRQFPGDKLEWLGYITYSGFTNYNPSLKSRISISRDTSKNQFFLQLNSVATEDTATYYCARWHGSAPWYFDYWGRGTTLTVSS VL: DVLMTQTPLSLPVSLGDQASISCRSSQNIVHSDGNTYLEWYLQKPGQSPNLLIYKVSRRFSGVPDRFSGSGSGTDFTLKISRVEAEDLGVYYCFQGSHFPLTFGAGTKLELK		0.0546	0.0508	0.174	0.045
MDX-25F7 (25F7) Fab fragment (Fab, V domains shown) VH: QVQLQQWGAGLLKPSETLSLTCAVYGGSFSDYYWNWIRQPPGKGLEWIGEINHNGNTNSNPSLKSRVTLSLDTSKNQFSLKLRSVTAADTAVYYCAFGYSDYEYNWFDPWGQGTLVTVSS VL: EIVLTQSPATLSLSPGERATLSCRASQSISSYLAWYQQKPGQAPRLLIYDASNRATGIPARFSGSGSGTDFTLTISSLEPEDFAVYYCQQRSNWPLTFGQGTNLEIK	0.000386				
MDX-26H10 (26H10) Fab fragment (Fab, V domains shown) VH: QVQLVESGGGVVQPGRSLRLSCAASGFTFSSYGMHWVRQAPGKGLEWVAVIWYDGSNKYYADSVKGRFTISRDNSKNTLYLQMNSLRAEDTAVYYCAREWAVASWDYGMDVWGQGTTVTVSS VL: not shown	0.000399				
PD1-0073 (antibody, V domains shown) VH: EVKLVESGGGLVKPGGSLKLSCAASGFTFSNYGMSWIRQTPEKGLEWVATISGGGRDTYYPDSVKGRFTISRDNVKNNLYLQMSSLRSEDTAFYYCASYYYGIDYWGQGTSVTVSS VL: DIVMTQPHKFMSTSVGDRVRITCKASQDVTTAVAWYQQKPGQSPKLLIYWASTRHTGVPDRFTGSGSGTEFTLTISSVQAEDLALYYCQQHYSIPWTFGGGTKLEIK		0.0083	0.0151	0.124	0.065
